Laboratory results published in publication PMC9352680, “A comprehensive thermodynamic model for RNA binding by the Saccharomyces cerevisiae Pumilio protein PUF4”.

T1: PUF4 RNA-binding domain (Saccharomyces cerevisiae, UniProt P25339 537-888)
T1 sequence: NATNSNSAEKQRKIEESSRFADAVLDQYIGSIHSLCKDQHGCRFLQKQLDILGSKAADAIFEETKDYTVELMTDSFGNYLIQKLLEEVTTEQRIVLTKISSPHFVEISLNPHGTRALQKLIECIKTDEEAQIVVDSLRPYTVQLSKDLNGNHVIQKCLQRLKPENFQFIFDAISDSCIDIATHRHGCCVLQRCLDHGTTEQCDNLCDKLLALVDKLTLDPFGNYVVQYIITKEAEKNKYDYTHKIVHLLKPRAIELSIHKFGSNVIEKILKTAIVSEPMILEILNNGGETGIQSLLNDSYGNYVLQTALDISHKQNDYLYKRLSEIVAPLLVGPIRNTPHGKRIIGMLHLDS

B1: Id_ii_S2_P3E.3_K3.2_C3.2_[C-2T]_[T-1A]_H3.2_A3.1_F3.1_T3.2_[T9A]_[A10T] (ssRNA)
RNA: UUUGAUUAAUAUGAUAUCGUUCUUUCUUAUAUAUAUAAUUUCUUUCUCGAUAUCAUAUUAAUCUUU
B2: Id_ii_S2_P3E.3_K3.2_C3.2_[C-2T]_[T-1A]_H3.2_A3.1_F3.1_T3.2_[A10T] (ssRNA)
RNA: UUUGAUUAAUAUGAUAUCGUUCUUUCUUAUAUAUAUAUUUUCUUUCUCGAUAUCAUAUUAAUCUUU
B3: Id_ii_S2_P3E.3_K3.2_C3.2_[C-2T]_H3.2_A3.1_F3.1_T3.2_[T9G]_[A10C] (ssRNA)
RNA: UUUGAUUAAUAUGAUAUCGUUCUUUCUUUUAUAUAUAGCUUCUUUCUCGAUAUCAUAUUAAUCUUU
B4: Id_ii_S2_P3E.3_K3.2_C3.2_[C-2A]_[T-1G]_H3.2_A3.1_F3.1_T3.2_[T9A]_[A10T] (ssRNA)
RNA: UUUGAUUAAUAUGAUAUCGUUCUUUCUAGUAUAUAUAAUUUCUUUCUCGAUAUCAUAUUAAUCUUU
B5: Id_ii_S2_P3E.3_K3.2_C3.2_[C-2A]_[T-1A]_H3.2_A3.1_F3.1_T3.2_[T9G]_[A10C] (ssRNA)
RNA: UUUGAUUAAUAUGAUAUCGUUCUUUCUAAUAUAUAUAGCUUCUUUCUCGAUAUCAUAUUAAUCUUU
B6: Id_ii_S2_P3E.3_K3.2_C3.2_[C-2A]_[T-1C]_H3.2_A3.1_F3.1_T3.2_[T9C]_[A10T] (ssRNA)
RNA: UUUGAUUAAUAUGAUAUCGUUCUUUCUACUAUAUAUACUUUCUUUCUCGAUAUCAUAUUAAUCUUU
B7: Id_ii_S2_P3E.3_K3.2_C3.2_[C-2A]_H3.2_A3.1_F3.1_T3.2_[T9C]_[A10G] (ssRNA)
RNA: UUUGAUUAAUAUGAUAUCGUUCUUUCUAUUAUAUAUACGUUCUUUCUCGAUAUCAUAUUAAUCUUU
B8: Id_ii_S2_P3E.3_K3.2_C3.2_[C-2A]_[T-1C]_H3.2_A3.1_F3.1_T3.2_[A10C] (ssRNA)
RNA: UUUGAUUAAUAUGAUAUCGUUCUUUCUACUAUAUAUAUCUUCUUUCUCGAUAUCAUAUUAAUCUUU
B9: Id_ii_S2_P3E.3_K3.2_C3.2_[C-2A]_H3.2_A3.1_F3.1_T3.2_[T9A] (ssRNA)
RNA: UUUGAUUAAUAUGAUAUCGUUCUUUCUAUUAUAUAUAAAUUCUUUCUCGAUAUCAUAUUAAUCUUU
B10: Id_ii_S2_P3E.3_K3.2_C3.2_[C-2A]_H3.2_A3.1_F3.1_T3.2_[T9A]_[A10T] (ssRNA)
RNA: UUUGAUUAAUAUGAUAUCGUUCUUUCUAUUAUAUAUAAUUUCUUUCUCGAUAUCAUAUUAAUCUUU
B11: Id_ii_S2_P3E.3_K3.2_C3.2_[C-2A]_[T-1A]_H3.2_A3.1_F3.1_T3.2_[T9A]_[A10G] (ssRNA)
RNA: UUUGAUUAAUAUGAUAUCGUUCUUUCUAAUAUAUAUAAGUUCUUUCUCGAUAUCAUAUUAAUCUUU
B12: Id_ii_S2_P3E.3_K3.2_C3.2_[C-2A]_[T-1C]_H3.2_A3.1_F3.1_T3.2_[T9C]_[A10C] (ssRNA)
RNA: UUUGAUUAAUAUGAUAUCGUUCUUUCUACUAUAUAUACCUUCUUUCUCGAUAUCAUAUUAAUCUUU
B13: Id_ii_S2_P3E.3_K3.2_C3.2_[C-2A]_[T-1C]_H3.2_A3.1_F3.1_T3.2_[T9A] (ssRNA)
RNA: UUUGAUUAAUAUGAUAUCGUUCUUUCUACUAUAUAUAAAUUCUUUCUCGAUAUCAUAUUAAUCUUU
B14: Id_ii_S2_P3E.3_K3.2_C3.2_[C-2T]_[T-1A]_H3.2_A3.1_F3.1_T3.2_[T9A] (ssRNA)
RNA: UUUGAUUAAUAUGAUAUCGUUCUUUCUUAUAUAUAUAAAUUCUUUCUCGAUAUCAUAUUAAUCUUU
B15: Id_ii_S2_P3E.3_K3.2_C3.2_[C-2T]_H3.2_A3.1_F3.1_T3.2_[T9A]_[A10T] (ssRNA)
RNA: UUUGAUUAAUAUGAUAUCGUUCUUUCUUUUAUAUAUAAUUUCUUUCUCGAUAUCAUAUUAAUCUUU
B16: Id_ii_S2_P3E.3_K3.2_C3.2_[C-2T]_H3.2_A3.1_F3.1_T3.2_[A10T] (ssRNA)
RNA: UUUGAUUAAUAUGAUAUCGUUCUUUCUUUUAUAUAUAUUUUCUUUCUCGAUAUCAUAUUAAUCUUU
B17: Id_ii_S2_P3E.3_K3.2_C3.2_[C-2A]_[T-1G]_H3.2_A3.1_F3.1_T3.2_[A10T] (ssRNA)
RNA: UUUGAUUAAUAUGAUAUCGUUCUUUCUAGUAUAUAUAUUUUCUUUCUCGAUAUCAUAUUAAUCUUU
B18: Id_ii_S2_P3E.3_K3.2_C3.2_[C-2A]_[T-1G]_H3.2_A3.1_F3.1_T3.2_[T9A] (ssRNA)
RNA: UUUGAUUAAUAUGAUAUCGUUCUUUCUAGUAUAUAUAAAUUCUUUCUCGAUAUCAUAUUAAUCUUU
B19: Id_ii_S2_P3E.3_K3.2_C3.2_[C-2T]_[T-1A]_H3.2_A3.1_F3.1_T3.2_[A10G] (ssRNA)
RNA: UUUGAUUAAUAUGAUAUCGUUCUUUCUUAUAUAUAUAUGUUCUUUCUCGAUAUCAUAUUAAUCUUU
B20: Id_ii_S2_P3E.3_K3.2_C3.2_[C-2A]_H3.2_A3.1_F3.1_T3.2_[T9C]_[A10C] (ssRNA)
RNA: UUUGAUUAAUAUGAUAUCGUUCUUUCUAUUAUAUAUACCUUCUUUCUCGAUAUCAUAUUAAUCUUU
B21: Id_ii_S2_P3E.3_K3.2_C3.2_[C-2A]_[T-1G]_H3.2_A3.1_F3.1_T3.2_[T9C]_[A10C] (ssRNA)
RNA: UUUGAUUAAUAUGAUAUCGUUCUUUCUAGUAUAUAUACCUUCUUUCUCGAUAUCAUAUUAAUCUUU
B22: Id_ii_S2_P3E.3_K3.2_C3.2_[C-2T]_H3.2_A3.1_F3.1_T3.2_[A10C] (ssRNA)
RNA: UUUGAUUAAUAUGAUAUCGUUCUUUCUUUUAUAUAUAUCUUCUUUCUCGAUAUCAUAUUAAUCUUU
B23: Id_ii_S2_P3E.3_K3.2_C3.2_[C-2A]_[T-1C]_H3.2_A3.1_F3.1_T3.2_[T9C]_[A10G] (ssRNA)
RNA: UUUGAUUAAUAUGAUAUCGUUCUUUCUACUAUAUAUACGUUCUUUCUCGAUAUCAUAUUAAUCUUU
B24: Id_ii_S2_P3E.3_K3.2_C3.2_[C-2T]_H3.2_A3.1_F3.1_T3.2_[T9A] (ssRNA)
RNA: UUUGAUUAAUAUGAUAUCGUUCUUUCUUUUAUAUAUAAAUUCUUUCUCGAUAUCAUAUUAAUCUUU
B25: Id_ii_S2_P3E.3_K3.2_C3.2_[C-2T]_[T-1A]_H3.2_A3.1_F3.1_T3.2_[A10C] (ssRNA)
RNA: UUUGAUUAAUAUGAUAUCGUUCUUUCUUAUAUAUAUAUCUUCUUUCUCGAUAUCAUAUUAAUCUUU
B26: Id_ii_S2_P3E.3_K3.2_C3.2_[C-2T]_H3.2_A3.1_F3.1_T3.2_[T9G]_[A10T] (ssRNA)
RNA: UUUGAUUAAUAUGAUAUCGUUCUUUCUUUUAUAUAUAGUUUCUUUCUCGAUAUCAUAUUAAUCUUU
B27: Id_ii_S2_P3E.3_K3.2_C3.2_[C-2A]_[T-1C]_H3.2_A3.1_F3.1_T3.2_[T9G]_[A10C] (ssRNA)
RNA: UUUGAUUAAUAUGAUAUCGUUCUUUCUACUAUAUAUAGCUUCUUUCUCGAUAUCAUAUUAAUCUUU
B28: Id_ii_S2_P3E.3_K3.2_C3.2_[C-2T]_H3.2_A3.1_F3.1_T3.2_[T9A]_[A10C] (ssRNA)
RNA: UUUGAUUAAUAUGAUAUCGUUCUUUCUUUUAUAUAUAACUUCUUUCUCGAUAUCAUAUUAAUCUUU
B29: Id_ii_S2_P3E.3_K3.2_C3.2_[C-2T]_H3.2_A3.1_F3.1_T3.2_[T9C]_[A10C] (ssRNA)
RNA: UUUGAUUAAUAUGAUAUCGUUCUUUCUUUUAUAUAUACCUUCUUUCUCGAUAUCAUAUUAAUCUUU
B30: Id_ii_S2_P3E.3_K3.2_C3.2_[C-2A]_[T-1A]_H3.2_A3.1_F3.1_T3.2_[A10T] (ssRNA)
RNA: UUUGAUUAAUAUGAUAUCGUUCUUUCUAAUAUAUAUAUUUUCUUUCUCGAUAUCAUAUUAAUCUUU
B31: Id_ii_S2_P3E.3_K3.2_C3.2_[C-2A]_H3.2_A3.1_F3.1_T3.2_[T9C]_[A10T] (ssRNA)
RNA: UUUGAUUAAUAUGAUAUCGUUCUUUCUAUUAUAUAUACUUUCUUUCUCGAUAUCAUAUUAAUCUUU
B32: Id_ii_S2_P3E.3_K3.2_C3.2_[C-2A]_[T-1G]_H3.2_A3.1_F3.1_T3.2_[T9A]_[A10C] (ssRNA)
RNA: UUUGAUUAAUAUGAUAUCGUUCUUUCUAGUAUAUAUAACUUCUUUCUCGAUAUCAUAUUAAUCUUU

Target: T1, PUF4 RNA-binding domain
Experiment: Mg; RNA-MaP; 20 mM Na-HEPES pH 7.4, 30 mM KOAc, 0.75 mM MgCl2, 0.1% Tween-20, 5% glycerol, 0.1 mg/mL BSA, 2 mM DTT; 25 C; 0.0125-409.6 nM protein
Conditions: tags: N-His6-TEV cleaved; C-SNAP kept, Cy3B-labelled; label: tethered on chip by stalled RNA polymerase

Binder | Kd
B1 | 247 nM
B2 | 83.4 nM
B3 | 277 nM
B4 | 199 nM
B5 | 701 nM
B6 | 103 nM
B7 | 713 nM
B8 | 183 nM
B9 | 693 nM
B10 | 531 nM
B11 | 1010 nM
B12 | 245 nM
B13 | 290 nM
B14 | 498 nM
B15 | 439 nM
B16 | 78.5 nM
B17 | 407 nM
B18 | 809 nM

Binder | Kd
B19 | 554 nM
B20 | 322 nM
B21 | 1900 nM
B22 | 130 nM
B23 | > 2300 nM
B24 | 925 nM
B25 | 93.1 nM
B26 | 253 nM
B27 | 1590 nM
B28 | 262 nM
B29 | 191 nM
B30 | 720 nM
B31 | 214 nM
B32 | 1960 nM
UCUCUUCGUAUUAUAAUCUCUU (ssRNA) [Ib_S1_P5E.1_K5.1_C5.1_H5.1_[T1C]_A5.1_F5.1_[T9A]_T5.1] | 691 nM
UCUCUUAGUAUUAUAAUCUCUU (ssRNA) [Ib_S1_P5E.1_K5.1_C5.1_H5.1_[T1A]_A5.1_F5.1_[T9A]_T5.1] | 614 nM
UCUCUUUGUAUUAUUGUCUCUU (ssRNA) [Ia_S1_P5E.1_K5.1_C5.1_H5.1_A5.1_F5.1_[A10G]_T5.1] | 14.8 nM
UCUCUUUGUUUUAAUAUCUCUU (ssRNA) [Ib_S1_P5E.1_K5.1_C5.1_H5.1_[A4T]_A5.1_F5.1_[T8A]_T5.1] | 73.4 nM
